Source: publication PMC4486471 (Nature communications, 2014)

Target: the molecule itself
Assay: crystal structure

B1: auto-phosphorylated minimal dual catalytic domain fragment of murine IRE1α encompassing residues 549 to 977 (domain or fragment, mouse, UniProt Q9EQY0 549-977, looked up)
chain: SPSLEQDDEDEETRMVIVGKISFCPKDVLGHGAEGTIVYKGMFDNRDVAVKRILPECFSFADREVQLLRESDEHPNVIRYFCTEKDRQFQYIAIELCAATLQEYVEQKDFAHLGLEPITLLHQTTSGLAHLHSLNIVHRDLKPHNILLSMPNAHGRIKAMISDFGLCKKLAVGRHSFSRRSGVPGTEGWIAPEMLSEDCKDNPTYTVDIFSAGCVFYYVISEGYHPFGKSLQRQANILLGACNLDCFHSDKHEDVIARELIEKMIAMDPQQRPSAKHVLKHPFFWSLEKQLQFFQDVSDRIEKEALDGPIVRQLERGGRAVVKMDWRENITVPLQTDLRKFRTYKGGSVRDLLRAMRNKKHHYRELPVEVQETLGSIPDDFVRYFTSRFPHLLSHTYQAMELCRHERLFQTYYWHEPTEPQPPVIPYAL
modifications: auto-phosphorylated (sites not given)
Q: Does B1 bind?
A: Result: binds
